Reference: publication PMC5120204, “Identification of an orally active small-molecule PTHR1 agonist for the treatment of hypoparathyroidism” (Nature Communications, 2016)
Read-outs that look alike come from different tables or passages of the source.

Tests used:
hPTHR2 = molecular target: T1, hPTHR2 (Homo sapiens, UniProt P49190); assay: cAMP production assay in COS-7 cells expressing hPTHR2; type: cell-based; conditions: COS-7 cells expressing human PTHR2
T1 construct: expressed in transfected cells; host or cells: COS-7 (transient)
Method: (§1) COS-7 cells (ATCC) were seeded into a 96-well flat-bottomed plate (1.4 × 10^4 cells per 100 μl per well) and incubated overnight. The next day, the COS-7 cells were transfected by adding 10 μl of a mixture of hPTHR1, hPTHR2 or mutant hPTHR1 plasmid, rat PTHR1 or rat PTHR2 plasmid, or empty vector (0.1 μg per well), FuGENE HD Transfection Reagent (0.4 μl per well, Promega), and Opti-MEM I Reduced Serum Medium (10 μl per well, Life Technologies) to each well. […] The plate was placed in a 37 °C constant-temperature water bath for 20 min to allow the reaction to proceed. After incubation, the liquid in the wells was discarded, the wells were washed with the assay medium (100 μl per well), and the plate was frozen on dry ice. Next, 40 μl of 50 mmol l^−1 HCl was added to each well, and the plate was stored in a freezer set at ≤−20 °C. The cAMP concentrations were measured by using a cAMP EIA kit (GE Healthcare). EC50 values were determined from three independent experiments in duplicate by a non-linear regression Emax model (JMP ver.9.0.2, SAS Institute). The geometric mean of the EC50 values obtained in three experiments in duplicate was calculated using Microsoft Office Excel 2007. […]

rat PTHR2 = molecular target: T2, rat PTHR2 (Rattus norvegicus, UniProt P70555); assay: cAMP production assay in COS-7 cells expressing rat PTHR2; type: cell-based
T2 construct: expressed in transfected cells; host or cells: COS-7 (transient)
Method: as §1

TPTX rats [1] = assay: Repeated administration study in TPTX rats, study 2 (add-on to alfacalcidol); type: in vivo, rat; conditions: alone at 75 ng kg^−1 once-daily oral, 4 weeks
Method: (§2) TPTX was carried out in 6-week-old female Crl:CD (SD) rats (Charles River Laboratories). Rats with serum Ca levels of <8.0 mg dl^−1 at 5 days after surgery were used in the following experiments. The rats were divided into four groups both in study 1 and 2, each with a similar mean value of serum Ca levels and body weight. Sample sizes were determined as described in the above single administration study. To evaluate the calcemic effects of PCO371 and hPTHs, we defined a target therapeutic range for serum Ca of 7.6–11.2 mg dl^−1, which corresponds to the low normal to normal range of serum Ca levels.
TPTX rats were orally treated once daily (vehicle; alfacalcidol (Chugai Pharma Manufacturing) at 38 or 75 ng kg^−1; or alfacalcidol at 38 ng kg^−1 plus PCO371 at 6 mg kg^−1) for 4 weeks. Five or six TPTX rats were assigned to each dose group. The vehicle for alfacalcidol was medium-chain triglyceride (Chugai Pharma Manufacturing). Under isoflurane anaesthesia, jugular vein blood was collected immediately before and at 6 and 10 h after administration to measure serum Ca levels on day 1 (the first dosing day), 8, 14, 22 and 28. Urine was collected for 24 h by using metabolic cages on days 28 and 29. Serum and urine Ca levels were measured in the same way as in the single-dosing study.

[2] = Pharmacokinetics in TPTX rats; type: in vivo, rat
TPTX rats [3] = assay: Single administration study in TPTX rats; type: in vivo, rat; conditions: TPTX studies, 0.9 nmol/kg
Method: TPTX was carried out in 6-week-old female Crl:CD(SD) rats (Charles River Laboratories). Rats with serum Ca levels of <8.0 mg dl^−1 at 5 days after surgery were used for the experiment. The rats were divided into six groups, each with a similar mean value of serum Ca levels and body weight. TPTX rats were treated once orally (vehicle or PCO371 at 1.3, 6.5 or 33 mg kg^−1) or subcutaneously (vehicle or hPTH(1–84) (Chugai Pharmaceutical) at 9 nmol kg^−1). Six TPTX rats were assigned to each dose group. The sample size was determined based on previous experiments and a published study with hPTHs and LA-PTH in our laboratories[24] (n=5–6). Vehicle for PCO371 was the same as in the OVX rat study, and phosphate-citrate buffer (pH 6.0) was used as vehicle for hPTH(1–84). Under isoflurane anaesthesia, jugular vein blood was collected immediately before and at 1, 2, 6, 10 and 24 h after administrations to measure serum Ca (o-CPC method, Wako Pure Chemical Industries) and Pi levels (xanthine oxidase method, Wako Pure Chemical Industries).
In another experiment, the effects of a single treatment with PCO371 or hPTH(1–34) on serum Ca and Pi in TPTX rats (6-week-old) were evaluated at the dose of 3, 9.5 or 30 mg kg^−1 (PCO371, p.o.) or 9 nmol kg^−1 (hPTH(1–34), s.c.) according to the same method as that described above.

TPTX rats [4] = assay: Repeated administration study in TPTX rats, study 1; type: in vivo, rat
Method: as §2
TPTX rats were treated twice daily (at around 09:00 and 19:00 hours) orally (vehicle or PCO371 at 1, 3 or 9 mg kg^−1) or subcutaneously [hPTH(1–34) or vehicle at 9 nmol kg^−1] for 4 weeks. Four rats were assigned to sham control, and treated with vehicle for PCO371. Vehicles for PCO371 and hPTH(1–34) were the same as in the OVX rat study. Under isoflurane anaesthesia, jugular vein blood was collected immediately before and at 6 and 10 h (for PCO371) or at 1 and 10 h (for hPTH) after administrations to measure the serum Ca levels on days 1 (the first dosing day), 7, 14, 22 and 29. Urine was collected for 24 h by using metabolic cages on days 29–30, and Ca excretion was calculated from urine volume and Ca level. Under isoflurane anaesthesia, jugular vein blood was collected 10 h after administrations to measure serum 1,25(OH)2D3 levels on Day 29 by using a 1,25(OH)2D3 RIA kit (Fujirebio). Four or five TPTX rats were assigned to each dose group. Serum and urine Ca levels were measured in the same way as in the single-dosing study. In another experiment, TPTX rats were treated subcutaneously once daily with hPTH(1–84) at 9 nmol kg^−1, for 4 weeks. Serum Ca was measured immediately before and at 2, 6 and 10 h after administration on day 1 (the first dosing day), 7, 14, 21 and 28 using the same method as described above. Urine was collected for 24 h by using metabolic cages on days 28 and 29, and Ca excretion was calculated from urine volume and Ca level.

patients = tested on: patients; set-up: method as in PMID 23649554; conditions: once-daily dosing; cited from earlier work
[5] = human; ref Calcifi Tissue Int 2010 87:485, J Bone Miner Res 2013 28:2232, J Pharmcol Exp Ther 2009 330:169; cited from earlier work
[6] = set-up: method as in earlier work; conditions: rat; ref Calcifi Tissue Int 2010 87:485, J Bone Miner Res 2013 28:2232, J Pharmcol Exp Ther 2009 330:169; cited from earlier work
OVX rats = assay: Repeated administration study in OVX rats; type: in vivo, rat; conditions: day 84, all treated rats
Method: OVX was carried out in 32-week-old female Crl:CD (SD) rats (Charles River Laboratories). Twelve weeks after surgery, lumbar vertebral BMD (L3–L5) was measured in vivo by dual-energy X-ray absorptiometry (DXA) using a DCS-600EX-IIIR bone densitometer (Hitachi Aloka Medical), and the rats were divided into five groups, each with a similar mean value of BMD and body weight. Sample sizes were determined based on previous experiments with hPTHs and a published study with ibandronate and eldecalcitriol in our laboratories[42] (n=7–10). Then, OVX rats were treated once daily intravenously (vehicle or PCO371 at 3 or 10 mg kg^−1) or orally (vehicle or PCO371 at 30 mg kg^−1) or subcutaneously [vehicle or hPTH(1–34) at 0.9 nmol kg^−1] for 12 weeks. Ten to twelve OVX rats were assigned to each dose group. Nine rats were assigned to the sham-operated control group and were treated with vehicle for PCO371. Ten per cent DMSO (Wako Pure Chemical Industries)/10% Kolliphor EL (Sigma-Aldrich) in 10% hydroxypropyl-β-cyclodextrin (HPCD; Nihon Shokuhin Kako)/0.752% glycine (Wako Pure Chemical Industries) buffer was used as vehicle for PCO371, and phosphate-citrate buffer (pH 6.0) was used as vehicle for hPTH(1–34). To label bone-forming surfaces, tetracycline ([…], Nippon Zenyaku Kogyo) was subcutaneously injected on Day 78 and calcein (8 mg kg^−1, Dōjindo Laboratories) was subcutaneously injected on day 83. Under isoflurane anaesthesia, jugular vein blood was collected immediately before and at 1, 2, 6, 10 and 24 h after administration on day 82 to measure plasma concentration of PCO371 or on day 84 to measure serum Ca levels (o-CPC method, Wako Pure Chemical Industries). Urine was collected for 24 h from metabolic cages on days 84–85 to measure urinary collagen type 1 cross-linked C-telopeptide (CTX) by using the RatLaps ELISA System (Immunodiagnostic Systems). Under isoflurane anaesthesia, blood was collected on day 85 from the abdominal aorta to measure serum osteocalcin level by using the Rat Osteocalcin ELISA System (GE Healthcare). The lumbar spine and bilateral femurs were excised after 12 weeks of treatment. The first lumbar vertebra (L1), 3rd to 5th lumbar vertebrae (L3–L5), the right femur, and the right tibia were preserved in 70% ethanol to measure bone histomorphometry and BMD (DCS-600EX; Hitachi Aloka Medical). Measurement of bone histomorphometry was performed by the Ito Bone Histomorphometry Institute (Niigata, Japan). The second lumbar vertebra (L2) was wrapped in saline-soaked gauze and stored at −80 °C until measurement. Ultimate compressive strength (N) of the L2 vertebra was measured by using a mechanical testing machine (TK-252C; Muromachi Kikai).

in vivo = conditions: female, Crl:CD(SD), rat, sc
Method: (§3) PCO371 was administered at a dose of 2, 6 or 18 mg kg^−1 orally to 7-week-old normal female rats (RccHan: WIST, JLA; three rats for each dose group), or at a dose of 2, 6 or 18 mg kg^−1 orally to 7-week-old female TPTX rats [Crl:CD(SD), Charles River Laboratories; three TPTX rats for each dose group] or at 30 mg kg^−1 orally or 3, 10 mg kg^−1 intravenously to 55-week-old OVX rats as described above. Blood samples were collected at 15 and 30 min, and 1, 2, 4, 8 and 24 h after administration. […] The concentrations of plasma PCO371 were determined by liquid chromatography–tandem mass spectrometry [LC-MS/MS (API-3200 (AB SCIEX), detection limit: 1 ng ml^−1).

[7] = Pharmacokinetics in normal rats
Method: as §3

[8] = female, Crl:CD(SD), rat, plasma, sc, 3 nmol/kg

T2 sequence (P70555 25-546): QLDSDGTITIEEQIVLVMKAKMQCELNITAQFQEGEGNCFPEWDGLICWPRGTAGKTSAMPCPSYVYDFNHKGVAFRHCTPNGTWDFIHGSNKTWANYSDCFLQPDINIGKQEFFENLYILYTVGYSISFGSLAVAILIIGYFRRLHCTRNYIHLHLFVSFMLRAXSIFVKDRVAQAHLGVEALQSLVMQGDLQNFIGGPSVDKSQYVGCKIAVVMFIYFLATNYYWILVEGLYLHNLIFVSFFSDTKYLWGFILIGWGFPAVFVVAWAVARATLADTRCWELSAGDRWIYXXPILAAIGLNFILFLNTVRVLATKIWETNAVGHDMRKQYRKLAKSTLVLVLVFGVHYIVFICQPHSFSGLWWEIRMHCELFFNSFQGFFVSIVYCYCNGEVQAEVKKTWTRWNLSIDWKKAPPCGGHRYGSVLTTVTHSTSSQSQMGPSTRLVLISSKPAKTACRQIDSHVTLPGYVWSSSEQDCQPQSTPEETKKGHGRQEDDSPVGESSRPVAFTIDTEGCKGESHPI
T1 sequence (P49190 25-550): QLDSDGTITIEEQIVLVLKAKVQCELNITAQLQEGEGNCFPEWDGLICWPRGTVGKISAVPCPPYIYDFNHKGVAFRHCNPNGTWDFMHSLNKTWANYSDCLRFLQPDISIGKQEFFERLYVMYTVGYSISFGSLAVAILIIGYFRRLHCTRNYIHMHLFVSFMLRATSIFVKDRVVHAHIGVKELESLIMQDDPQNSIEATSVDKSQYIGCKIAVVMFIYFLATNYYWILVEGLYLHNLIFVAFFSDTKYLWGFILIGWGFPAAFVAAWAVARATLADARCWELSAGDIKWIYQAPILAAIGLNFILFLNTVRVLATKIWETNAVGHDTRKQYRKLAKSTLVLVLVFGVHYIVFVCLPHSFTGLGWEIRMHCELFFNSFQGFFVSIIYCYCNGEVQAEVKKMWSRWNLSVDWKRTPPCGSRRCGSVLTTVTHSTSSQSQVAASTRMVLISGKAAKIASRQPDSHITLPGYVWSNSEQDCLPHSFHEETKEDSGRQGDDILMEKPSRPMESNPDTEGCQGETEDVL

TIP39: tuberoinfundibular peptide of 39 residues, the cognate ligand for PTHR2 [reference compound]
cAMP production (hPTHR2): showed an increase in cAMP production
cAMP production (rat PTHR2): showed an increase in cAMP production

C=C1/C(=C\C=C2/CCC[C@]3(C)[C@@H]([C@H](C)CCCC(C)C)CC[C@@H]23)C[C@@H](O)C[C@@H]1O [Alfacalcidol, 1α-hydroxycholecalciferol, reference compound]
serum Ca (TPTX rats [1]): normalized the serum Ca to within or above the target therapeutic range
urinary Ca excretion (TPTX rats [1]): considerable urinary Ca excretion

hPTH(1–84): the full-length, native PTH molecule called human PTH(1–84) [reference compound]
AUC ([2]; s.c. 30 nmol kg-1): 1.80 ± 0.78 ng·h/mL
Cmax ([2]; s.c. 30 nmol kg-1): 3.42 ± 1.10 ng/mL
T1/2 ([2]; s.c. 30 nmol kg-1): 12 ± 6 min
Tmax ([2]; s.c. 30 nmol kg-1): 12 ± 12 min
AUC ([2]; s.c. 100 nmol kg-1): 8.55 ± 4.63 ng·h/mL
Cmax ([2]; s.c. 100 nmol kg-1): 8.67 ± 1.97 ng/mL
T1/2 ([2]; s.c. 100 nmol kg-1): 102 ± 132 min
Tmax ([2]; s.c. 100 nmol kg-1): 6 ± 6 min
AUC ([2]; s.c. 300 nmol kg-1): 21.0 ± 5.58 ng·h/mL
Cmax ([2]; s.c. 300 nmol kg-1): 39.7 ± 10.3 ng/mL
T1/2 ([2]; s.c. 300 nmol kg-1): 66 ± 54 min
Tmax ([2]; s.c. 300 nmol kg-1): 6 ± 6 min
serum Ca levels (TPTX rats [3]): failed to induce any changes
urinary Ca excretion (TPTX rats [4]; after 4-week treatment, s.c. once daily 9 nmol kg^−1): No increase
serum Ca (TPTX rats [4]; subcutaneous 9 nmol kg^−1 for 4 weeks, target therapeutic range 7.6–11.2 mg dl^−1): transiently increased serum Ca to within the target therapeutic range
duration of observed effects (patients): up to 24 h
patients with hypercalcemia at peak times (patients): 71%
time of peak Ca levels after administration (patients): around 7 h
Tmax at the first peak [5]: 15 min
Tmax at the second peak [5]: 120 min
Tmax [6]: 5 to 15 min

CC[C@H](C)[C@H](NC(=O)[C@H](CCC(=O)O)NC(=O)[C@H](CO)NC(=O)[C@@H](NC(=O)[C@@H](N)CO)C(C)C)C(=O)N[C@@H](CCC(N)=O)C(=O)N[C@@H](CC(C)C)C(=O)N[C@@H](CCSC)C(=O)N[C@@H](Cc1cnc[nH]1)C(=O)N[C@@H](CC(N)=O)C(=O)N[C@@H](CC(C)C)C(=O)NCC(=O)N[C@@H](CCCCN)C(=O)N[C@@H](Cc1cnc[nH]1)C(=O)N[C@@H](CC(C)C)C(=O)N[C@@H](CC(N)=O)C(=O)N[C@@H](CO)C(=O)N[C@@H](CCSC)C(=O)N[C@@H](CCC(=O)O)C(=O)N[C@@H](CCCN=C(N)N)C(=O)N[C@H](C(=O)N[C@@H](CCC(=O)O)C(=O)N[C@@H](Cc1c[nH]c2ccccc12)C(=O)N[C@@H](CC(C)C)C(=O)N[C@@H](CCCN=C(N)N)C(=O)N[C@@H](CCCCN)C(=O)N[C@@H](CCCCN)C(=O)N[C@@H](CC(C)C)C(=O)N[C@@H](CCC(N)=O)C(=O)N[C@@H](CC(=O)O)C(=O)N[C@H](C(=O)N[C@@H](Cc1cnc[nH]1)C(=O)N[C@@H](CC(N)=O)C(=O)N[C@@H](Cc1ccccc1)C(=O)O)C(C)C)C(C)C [hPTH(1–34), reference compound]
serum Ca (OVX rats): within the normal range
Tmax [5]: 30 min
half-life (in vivo): 15 min
half-life (in vivo; 3 nmol/kg): 18 ± 6 min
AUC(0-inf) [7, 8]: 0.99 ± 0.17 ng·h/mL
Cmax [7, 8]: 2.42 ± 0.53 ng/mL
Tmax [7, 8]: 6 ± 6 min
bioavailability [7, 8]: 22%
Tmax ([7]; rat (Table 1)): 5 min
Cmax ([7]; rat, plasma, sc, 0.9 nmol/kg): ~0.125 ng/mL
